{"source": "patent US20140162952A1", "about": "(ONCOTHERAPY SCIENCE, published 2014)", "binders": {"B1": {"name": "Scramble (HA-Peptide) (peptide)", "single chain": "DRQLQLSTLQRML", "notes": "it is detected in the Peptide blot, so it carries the tag; also called HA-tagged ERAP1-scramble peptide"}, "B2": {"name": "ERAP1 mutant (alanine mutant of Q165, D169 and Q173) (other)", "chain": "MEEILRKLQKEASGSKYKAIKESCTWALETLGGLDTIVKIPPHVLREKCLLPLQLALESKNVKLAQHALAGMQKLLSEERFVSMETDSDEKQLLNQILNAVKVTPSLNEDLQVEVMKVLLCITYTPTFDLNGSAVLKIAEVCIETYISSCHQRSINTAVRATLSAMLSALTLALRQRQENTIIENPDVPQDFGNQGSTVESLCDDVVSVLTVLCEKLQAAINDSQQLQLLYLECILSVLSSSSSSMHLHRRFTDLIWKNLCPALIVILGNPIHDKTITSAHTSSTSTSLESDSASPGVSDHGRGSGCSCTAPALSGPVARTIYYIAAELVRLVGSVDSMKPVLQSLYHRVLLYPPPQHRVEAIKIMKEILGSPQRLCDLAGPSSTESESRKRSISKRKSHLDLLKLIMDGMTEACIKGGIEACYAAVSCVCTLL", "notes": "not shown: Flag tag"}, "B3": {"name": "Q173A (other)", "single chain": "B2 chain with A165Q, A169D", "notes": "Construct named in the text, but absent from the list MOLECULES; its band ratios stand only on the sheet; also called alanine mutant of Q173 (Q173A)"}, "B4": {"name": "estrogen receptor α (ERα) (receptor)", "chain": "MTMTLHTKASGMALLHQIQGNELEPLNRPQLKIPLERPLGEVYLDSSKPAVYNYPEGAAYEFNAAAAANAQVYGQTGLPYGPGSEAAAFGSNGLGGFPPLNSVSPSPLMLLHPPPQLSPFLQPHGQQVPYYLENEPSGYTVREAGPPAFYRPNSDNRRQGGRERLASTNDKGSMAMESAKETRYCAVCNDYASGYHYGVWSCEGCKAFFKRSIQGHNDYMCPATNQCTIDKNRRKSCQACRLRKCYEVGMMKGGIRKDRRGGRMLKHKRQRDDGEGRGEVGSAGDMRAANLWPSPLMIKRSKKNSLALSLTADQMVSALLDAEPPILYSEYDPTRPFSEASMMGLLTNLADRELVHMINWAKRVPGFVDLTLHDQVHLLECAWLEILMIGLVWRSMEHPGKLLFAPNLLLDRNQGKCVEGMVEIFDMLLATSSRFRMMNLQGEEFVCLKSIILLNSGVYTFLSSTLKSLEEKDHIHRVLDKITDTLIHLMAKAGLTLQQQHQRLAQLLLILSHIRHMSNKGMEHLYSMKCKNVVPLYDLLLEMLDAHRLHAPTSRGGASVEETDQSHLATAGSTSSHSLQKYYITGEAEGFPATV", "notes": "Immunoprecipitated with anti-ERα antibody from cytoplasm or nuclear fractions"}, "B5": {"name": "scrPeptide (peptide)", "peptide": "DRQLQLSTLQRML", "modifications": "also: FITC tag, position not given here", "notes": "also called FITC-tagged ERAP1-scramble peptide"}, "B6": {"name": "HA-tagged ERAP1-peptide (peptide)", "peptide": "RRRRRRRRRRRQMLSDLTLQLRQR", "notes": "ERAP1-peptide to which an HA tag was added; also called ERAP1-HA-peptide; HA tag-added peptide; not shown: HA tag"}}, "key": {"[1]": {"target": "T1, 6×His-tagged recombinant PHB2/REA protein (human, UniProt Q99623 77-244)", "T1 construct": "Expressed in Escherichia coli BL21 star (DE3); also called His-PHB2/REA; 6×His-PHB2/REA; not shown: hexahistidine tag, thioredoxin (TrxA) and TEV protease cut site at the amino terminal (pTAT6 vector)", "T1 sequence (Q99623 77-244)": "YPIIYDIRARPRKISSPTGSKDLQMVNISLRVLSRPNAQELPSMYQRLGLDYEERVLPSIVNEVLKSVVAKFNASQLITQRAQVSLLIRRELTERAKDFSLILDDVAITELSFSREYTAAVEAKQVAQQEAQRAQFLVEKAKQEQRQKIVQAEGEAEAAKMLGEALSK", "assay": "Ni-resin pull-down of 10 µg His-PHB2 mixed with lysate of Flag-tagged ERAP1 expressing cells and HA-peptide; blot for Peptide"}, "[2]": {"target": "T2, HA-PHB2 (HA-tagged PHB2 construct) (human, UniProt Q99623 1-299, limits assumed)", "T2 construct": "Expressed by transfection in COS-7 or HEK293T cells; also called PHB2/REA construct; HA-tagged PHB2/REA (WT); not shown: HA tag", "T2 sequence (Q99623 whole entry)": "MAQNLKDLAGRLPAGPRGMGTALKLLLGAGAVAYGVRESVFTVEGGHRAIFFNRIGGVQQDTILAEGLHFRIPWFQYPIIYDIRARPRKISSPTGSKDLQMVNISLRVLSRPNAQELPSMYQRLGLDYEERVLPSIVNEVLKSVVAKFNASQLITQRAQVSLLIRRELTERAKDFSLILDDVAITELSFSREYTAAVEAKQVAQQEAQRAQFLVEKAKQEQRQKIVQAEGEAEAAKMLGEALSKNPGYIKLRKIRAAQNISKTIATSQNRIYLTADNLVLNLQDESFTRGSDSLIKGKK", "assay": "COS-7 co-transfection with the PHB2/REA construct, IP and immunoblot"}, "[3]": {"target": "T2, HA-PHB2 (HA-tagged PHB2 construct)", "assay": "co-immunoprecipitation from COS-7 cells, IP anti-FLAG, blot anti-HA"}, "[4]": {"target": "T2, HA-PHB2 (HA-tagged PHB2 construct)", "assay": "co-immunoprecipitation from COS-7 cells, IP anti-FLAG and IP anti-HA"}, "[5]": {"target": "T2, HA-PHB2 (HA-tagged PHB2 construct)", "assay": "co-immunoprecipitation from COS-7 cells, IP anti-HA, blot anti-FLAG"}, "EGFR": {"target": "EGFR (human, UniProt P00533 25-1210)", "assay": "anti-ERα co-IP from the cytoplasm fraction of BT-474 cells, 24 h, 10 nM E2 and/or 10 µM Peptide"}, "Her2": {"target": "Her2 (human, UniProt P04626 23-1255)", "assay": "anti-ERα co-IP from the cytoplasm fraction of BT-474 cells, 24 h, 10 nM E2 and/or 10 µM Peptide"}, "NcoR": {"target": "T3, NcoR (human, UniProt O75376 1-2440, limits assumed)", "T3 construct": "also called transcription coupling suppression factor NcoR", "T3 sequence (O75376 whole entry)": "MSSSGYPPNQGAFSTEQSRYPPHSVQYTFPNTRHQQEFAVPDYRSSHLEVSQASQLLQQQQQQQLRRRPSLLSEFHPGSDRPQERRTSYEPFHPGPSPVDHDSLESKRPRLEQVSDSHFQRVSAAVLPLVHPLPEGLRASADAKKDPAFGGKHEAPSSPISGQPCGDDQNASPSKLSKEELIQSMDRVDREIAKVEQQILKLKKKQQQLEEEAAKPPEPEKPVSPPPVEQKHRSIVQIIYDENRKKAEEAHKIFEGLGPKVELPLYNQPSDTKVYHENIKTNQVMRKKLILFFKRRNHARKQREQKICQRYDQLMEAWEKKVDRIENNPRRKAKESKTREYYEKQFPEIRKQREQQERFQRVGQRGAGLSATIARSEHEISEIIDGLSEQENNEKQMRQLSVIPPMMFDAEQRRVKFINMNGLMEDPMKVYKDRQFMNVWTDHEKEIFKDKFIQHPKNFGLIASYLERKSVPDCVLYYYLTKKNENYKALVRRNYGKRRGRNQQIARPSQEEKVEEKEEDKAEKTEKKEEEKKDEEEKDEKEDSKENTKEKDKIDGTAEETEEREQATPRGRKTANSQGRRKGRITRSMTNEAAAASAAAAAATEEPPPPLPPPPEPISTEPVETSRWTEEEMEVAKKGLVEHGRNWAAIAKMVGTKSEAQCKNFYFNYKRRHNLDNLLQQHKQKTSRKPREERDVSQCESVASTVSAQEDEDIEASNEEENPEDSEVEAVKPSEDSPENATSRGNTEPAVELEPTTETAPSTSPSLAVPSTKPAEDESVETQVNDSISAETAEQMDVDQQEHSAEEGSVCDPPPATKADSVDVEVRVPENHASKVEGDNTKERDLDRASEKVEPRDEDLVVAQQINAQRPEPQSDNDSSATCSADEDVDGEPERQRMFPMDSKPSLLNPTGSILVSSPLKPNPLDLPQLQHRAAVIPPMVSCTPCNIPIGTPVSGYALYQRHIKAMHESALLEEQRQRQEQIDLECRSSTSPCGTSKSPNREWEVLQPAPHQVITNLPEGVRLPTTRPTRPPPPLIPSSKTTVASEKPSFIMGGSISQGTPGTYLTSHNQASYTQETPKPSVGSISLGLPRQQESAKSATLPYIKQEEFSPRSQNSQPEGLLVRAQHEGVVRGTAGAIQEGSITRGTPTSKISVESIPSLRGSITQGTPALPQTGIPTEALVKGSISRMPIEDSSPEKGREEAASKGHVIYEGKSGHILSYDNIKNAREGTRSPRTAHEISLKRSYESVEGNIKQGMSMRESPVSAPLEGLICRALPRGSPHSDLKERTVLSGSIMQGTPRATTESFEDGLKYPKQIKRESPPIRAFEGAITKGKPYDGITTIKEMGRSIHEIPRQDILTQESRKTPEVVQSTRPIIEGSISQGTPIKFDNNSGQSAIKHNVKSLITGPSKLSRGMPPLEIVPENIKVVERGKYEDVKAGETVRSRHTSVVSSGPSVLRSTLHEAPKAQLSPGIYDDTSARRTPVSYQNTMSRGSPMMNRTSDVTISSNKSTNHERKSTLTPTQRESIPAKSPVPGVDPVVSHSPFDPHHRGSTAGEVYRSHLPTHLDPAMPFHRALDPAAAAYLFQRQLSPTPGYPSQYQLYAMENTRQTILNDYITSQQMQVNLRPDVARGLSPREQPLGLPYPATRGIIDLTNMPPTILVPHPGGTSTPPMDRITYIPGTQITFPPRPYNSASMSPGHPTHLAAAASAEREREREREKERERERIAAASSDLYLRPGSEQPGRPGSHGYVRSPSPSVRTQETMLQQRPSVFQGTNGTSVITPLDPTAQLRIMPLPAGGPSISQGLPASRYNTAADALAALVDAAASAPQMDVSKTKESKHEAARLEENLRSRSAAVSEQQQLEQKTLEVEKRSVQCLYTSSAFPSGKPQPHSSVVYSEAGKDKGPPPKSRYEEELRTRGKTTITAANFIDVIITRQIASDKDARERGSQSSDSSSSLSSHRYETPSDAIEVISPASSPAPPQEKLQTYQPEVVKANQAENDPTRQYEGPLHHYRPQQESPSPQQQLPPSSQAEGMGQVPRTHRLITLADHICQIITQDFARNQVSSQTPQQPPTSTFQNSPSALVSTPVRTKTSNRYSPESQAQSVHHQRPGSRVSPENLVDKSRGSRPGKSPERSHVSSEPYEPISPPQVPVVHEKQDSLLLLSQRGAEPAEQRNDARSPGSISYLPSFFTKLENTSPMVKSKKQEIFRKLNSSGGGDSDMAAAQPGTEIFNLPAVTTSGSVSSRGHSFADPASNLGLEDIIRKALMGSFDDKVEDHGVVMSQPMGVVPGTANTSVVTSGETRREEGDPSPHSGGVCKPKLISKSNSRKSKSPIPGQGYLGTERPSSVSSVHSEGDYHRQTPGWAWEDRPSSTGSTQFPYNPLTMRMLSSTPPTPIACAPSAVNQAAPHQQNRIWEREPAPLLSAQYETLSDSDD", "assay": "co-IP from the nuclear fraction of KPL-3C cells, 24 h, 10 nM E2 and/or 10 µM Peptide"}, "[6]": {"target": "T1, 6×His-tagged recombinant PHB2/REA …", "assay": "fluorescence correlation spectroscopy, 10 nM FITC-tagged ERAP1-scramble peptide with rising 6xHis-PHB2/REA"}, "[7]": {"target": "T1, 6×His-tagged recombinant PHB2/REA …", "assay": "Biacore 3000, 6×His-tagged recombinant PHB2/REA immobilized on a CM5 chip, peptide injected; Biacore; His-PHB2/REA on the chip, HA-tagged peptide injected"}, "[8]": {"target": "T4, inherent ERAP1 (Estrogen Receptor Activity-regulated Protein 1) (human, UniProt Q5TH69 1-2177)", "T4 construct": "Endogenous protein immunoprecipitated from cell lysates; also called ERAP1 polypeptide; BIG3", "assay": "co-IP from cytoplasm and nuclear fractions of KPL-3C cells, 24 h, 10 nM E2 and/or 10 µM HA-tagged ERAP1-peptide; blot anti-HA"}, "[9]": {"target": "T1, 6×His-tagged recombinant PHB2/REA …", "assay": "fluorescence correlation spectroscopy, 10 nM FITC-tagged ERAP1-peptide with rising 6xHis-PHB2/REA; same constant as the 14.4 µM of the text, in mass units"}, "[10]": {"target": "T1, 6×His-tagged recombinant PHB2/REA …", "assay": "fluorescence correlation spectroscopy, 10 nM FITC-tagged peptide with His-PHB2/REA at various concentrations; fluorescence correlation spectroscopy; 10 nM FITC-tagged peptide in solution"}}, "note": "Where a chain is given by its changes, count along the chain named. In names and notes the source's numbering stands. Where no end group is shown, it is not given here."}
{"binder": "B1", "values": [{"measurement": "binding result", "setting": "[1]", "value": "no binding (tested: 100 µM)"}]}
{"binder": "B2", "values": [{"measurement": "coprecipitation band, ratio when that with ERAP1 (1-434 aa) is designated as 100", "setting": "[2]", "value": 2, "unit": "%"}, {"measurement": "ratio of the coprecipitated band (ERAP1 1-434 = 100)", "setting": "[3]", "value": 1}, {"measurement": "binding result", "setting": "[4]", "value": "no binding"}]}
{"binder": "B3", "values": [{"measurement": "ratio of the coprecipitated band (ERAP1 1-434 = 100)", "setting": "[5]", "value": 52}, {"measurement": "ratio of the coprecipitated band (ERAP1 1-434 = 100)", "setting": "[3]", "value": 79}]}
{"binder": "B4", "values": [{"measurement": "binding result", "setting": "EGFR", "value": "binds"}, {"measurement": "binding result", "setting": "Her2", "value": "binds"}, {"measurement": "binding result", "setting": "NcoR", "value": "binds"}]}
{"binder": "B5", "values": [{"measurement": "binding result", "setting": "[6]", "value": "no binding (tested: about 1.25 mg/mL)"}]}
{"binder": "B6", "values": [{"measurement": "Kd", "setting": "[7]", "value": 18.9, "unit": "µM"}, {"measurement": "binding result", "setting": "[8]", "value": "no binding (tested: 10 µM)"}]}
{"binder": "RRRRRRRRRRRQMLSDLTLQLRQR (also: FITC tag, position not given here)", "note": "[FITC-tagged ERAP1-peptide]", "values": [{"measurement": "Kd", "setting": "[9]", "value": 480, "unit": "µg/mL"}, {"measurement": "Kd", "setting": "[10]", "value": 14.4, "unit": "µM"}]}
